This is an account of results in publication PMC6220978, “Induced conformational changes activate the peptidoglycan synthase PBP1B” (Molecular Microbiology, 2018).

Experiment [1] addresses T1, PBP1B K355A (E. coli, UniProt P02919 46-844, K355A).
T1 sequence (looked up): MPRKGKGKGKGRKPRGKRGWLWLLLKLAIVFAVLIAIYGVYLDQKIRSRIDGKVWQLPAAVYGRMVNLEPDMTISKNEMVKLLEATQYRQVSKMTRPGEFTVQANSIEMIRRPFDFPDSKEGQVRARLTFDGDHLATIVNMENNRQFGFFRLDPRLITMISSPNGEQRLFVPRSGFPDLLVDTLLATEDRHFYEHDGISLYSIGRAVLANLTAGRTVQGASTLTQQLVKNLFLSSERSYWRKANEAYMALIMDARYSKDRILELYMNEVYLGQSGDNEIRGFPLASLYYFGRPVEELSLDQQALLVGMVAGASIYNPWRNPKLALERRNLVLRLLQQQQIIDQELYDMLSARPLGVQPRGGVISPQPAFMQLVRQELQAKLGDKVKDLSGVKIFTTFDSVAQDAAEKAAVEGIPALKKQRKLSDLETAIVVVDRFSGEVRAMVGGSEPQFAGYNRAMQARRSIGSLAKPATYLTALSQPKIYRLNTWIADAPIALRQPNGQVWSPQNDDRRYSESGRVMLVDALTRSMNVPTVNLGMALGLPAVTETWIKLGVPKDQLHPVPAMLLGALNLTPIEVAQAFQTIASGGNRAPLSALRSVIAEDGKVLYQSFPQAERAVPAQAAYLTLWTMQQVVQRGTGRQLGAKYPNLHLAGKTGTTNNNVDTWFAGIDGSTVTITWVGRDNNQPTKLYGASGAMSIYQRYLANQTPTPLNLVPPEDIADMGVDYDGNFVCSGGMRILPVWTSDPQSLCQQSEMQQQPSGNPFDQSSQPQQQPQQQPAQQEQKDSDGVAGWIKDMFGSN
Briefly: cell-based or functional assay.

The target in experiment [2] is T2, PBP1B R109G (E. coli, UniProt P02919 46-844, R109G).
T2 construct: PBP1B, E. coli, residues 46-844, made by mutagenesis of pDML924; source: E. coli BL21(DE3), purified (membrane extract, HisTrap, thrombin, HiTrap SP ion exchange)
T2 sequence (looked up): T1 sequence (looked up) with R64G, A310K
Briefly: SPR; PBP1B versions immobilised to the chip surface; CpoB versions injected from either 3.9 nM to 2 μM or from 78 nM to 40 μM; apparent KD by non-linear regression, at least three independent experiments. The conditions noted are these: both partners purified.

Experiment [3] deals with T3, PBP1B I202F (E. coli, UniProt P02919 46-844, I202F).
T3 construct: PBP1B, E. coli, residues 46-844, made by mutagenesis of pDML924; Substitution first found in the suppressor screen of Markovski et al. 2016 (LpoB bypass); source: E. coli BL21(DE3), purified (membrane extract, HisTrap, thrombin, HiTrap SP ion exchange)
T3 sequence (looked up): T1 sequence (looked up) with I157F, A310K
The description is as above. The conditions noted are these: both partners purified.

Positions count from the first letter of the chain named. A value given as a limit tells only on which side of the number the result lay.

B1: LpoB (natural protein, E. coli)
chain: VGQREPAPVEEVKPAPEQPAEPQQPVPTVPSVPTIPQQPGPIEHEDQTAPPAPHIRHYDWNGAMQPMVSKMLGADGVTAGSVLLVDSVNNRTNGSLNAAEATETLRNALANNGKFTLVSAQQLSMAKQQLGLSPQDSLGTRSKAIGIARNVGAHYVLYSSASGNVNAPTLQMQLMLVQTGEIIWSGKGAVSQQ
notes: LpoB, E. coli; also called lipoprotein LpoB; source: E. coli BL21(DE3), purified (HisTrap, Superdex 200), as in Egan et al. 2014
B1: the “fold activation of the GTase rate of PBP1B K355A by LpoB” value in experiment [1] was roughly 37 fold.

B2: CpoB (full length) (natural protein, E. coli, UniProt P45955 27-263, looked up)
chain: QAPISSVGSGSVEDRVTQLERISNAHSQLLTQLQQQLSDNQSDIDSLRGQIQENQYQLNQVVERQKQILLQIDSLSSGGAAAQSTSGDQSGAAASTTPTADAGTANAGAPVKSGNANTDYNAAIALVQDKSRQDDAMVAFQNFIKNYPDSTYLPNANYWLGQLNYNKGKKDDAAYYFASVVKNYPKSPKAADAMFKVGVIMQDKGDTAKAKAVYQQVISKYPGTDGAKQAQKRLNAM
notes: CpoB, E. coli; The coiled-coil construct begins at residue 27, so the purified 'full length' protein may lack the signal peptide (surmise); source: E. coli BL21(DE3), purified (HisTrap, Superdex 200), as in Gray et al. 2015
For the molecule B2, the Kd in experiment [2] was 70 nM; in experiment [3], greater than 2000 nM.
